# Source: patent publication US20200392225A1 (Novartis, published 2020)
# Where two headings read alike, the source gives them in different places.
# T1: human NPR1 expressed on CHO-K1 cells in the presence of ANP (human, UniProt P01160 124-151)
# T1 construct: also called hNPR1 CHO K1 + 100 nM ANP
# T1 sequence: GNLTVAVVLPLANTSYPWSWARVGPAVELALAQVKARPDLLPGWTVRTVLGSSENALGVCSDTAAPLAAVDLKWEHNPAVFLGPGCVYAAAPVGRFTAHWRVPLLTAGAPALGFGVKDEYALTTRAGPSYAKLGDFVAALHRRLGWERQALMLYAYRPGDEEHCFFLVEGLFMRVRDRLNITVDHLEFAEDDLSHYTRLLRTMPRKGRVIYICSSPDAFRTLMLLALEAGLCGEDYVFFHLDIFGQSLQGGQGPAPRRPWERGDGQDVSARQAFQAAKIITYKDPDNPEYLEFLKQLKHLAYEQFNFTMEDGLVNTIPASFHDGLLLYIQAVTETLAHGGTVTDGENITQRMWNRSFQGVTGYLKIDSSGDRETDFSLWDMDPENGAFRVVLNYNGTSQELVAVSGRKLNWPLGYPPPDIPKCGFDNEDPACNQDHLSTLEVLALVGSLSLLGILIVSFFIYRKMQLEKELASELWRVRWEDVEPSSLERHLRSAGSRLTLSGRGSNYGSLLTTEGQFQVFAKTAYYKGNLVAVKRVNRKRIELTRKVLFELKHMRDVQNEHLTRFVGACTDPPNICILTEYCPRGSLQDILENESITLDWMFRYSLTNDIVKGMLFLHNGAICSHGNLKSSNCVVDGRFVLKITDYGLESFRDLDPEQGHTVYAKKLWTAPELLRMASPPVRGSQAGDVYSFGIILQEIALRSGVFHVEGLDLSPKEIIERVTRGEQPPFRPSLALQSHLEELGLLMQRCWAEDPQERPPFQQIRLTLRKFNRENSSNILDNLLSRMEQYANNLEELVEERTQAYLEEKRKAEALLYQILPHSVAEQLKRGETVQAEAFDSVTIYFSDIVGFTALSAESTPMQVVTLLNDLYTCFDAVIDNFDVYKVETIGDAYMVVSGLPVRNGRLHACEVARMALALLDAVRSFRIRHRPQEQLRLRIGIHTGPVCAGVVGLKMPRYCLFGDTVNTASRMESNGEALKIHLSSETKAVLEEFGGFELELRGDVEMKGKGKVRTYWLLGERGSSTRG
# T1 sequence (peptide): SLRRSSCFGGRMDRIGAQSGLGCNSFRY
# T2: human NPR1-ANP complex (human, UniProt P01160 124-151, limits assumed)
# T2 construct: Receptor antigen measured in the presence of ANP; also called hNPR1 + ANP; hNPR1-ANP-complex
# T2 sequence: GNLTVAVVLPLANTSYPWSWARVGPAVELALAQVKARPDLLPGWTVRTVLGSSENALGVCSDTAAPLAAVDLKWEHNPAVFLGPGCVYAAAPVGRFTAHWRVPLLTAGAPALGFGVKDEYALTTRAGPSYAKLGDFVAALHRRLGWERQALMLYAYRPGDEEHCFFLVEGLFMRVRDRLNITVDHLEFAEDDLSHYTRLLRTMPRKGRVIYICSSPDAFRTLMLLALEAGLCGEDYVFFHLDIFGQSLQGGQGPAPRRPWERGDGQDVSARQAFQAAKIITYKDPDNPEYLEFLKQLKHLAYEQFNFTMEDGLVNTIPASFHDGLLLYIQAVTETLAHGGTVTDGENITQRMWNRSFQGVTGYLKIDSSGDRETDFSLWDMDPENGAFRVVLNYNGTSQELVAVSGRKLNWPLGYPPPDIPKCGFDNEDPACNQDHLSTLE
# T2 sequence (peptide): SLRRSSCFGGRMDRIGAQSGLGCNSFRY
# T3: human NPR1 expressed on CHO-K1 cells (human, UniProt P16066 33-1061)
# T3 sequence: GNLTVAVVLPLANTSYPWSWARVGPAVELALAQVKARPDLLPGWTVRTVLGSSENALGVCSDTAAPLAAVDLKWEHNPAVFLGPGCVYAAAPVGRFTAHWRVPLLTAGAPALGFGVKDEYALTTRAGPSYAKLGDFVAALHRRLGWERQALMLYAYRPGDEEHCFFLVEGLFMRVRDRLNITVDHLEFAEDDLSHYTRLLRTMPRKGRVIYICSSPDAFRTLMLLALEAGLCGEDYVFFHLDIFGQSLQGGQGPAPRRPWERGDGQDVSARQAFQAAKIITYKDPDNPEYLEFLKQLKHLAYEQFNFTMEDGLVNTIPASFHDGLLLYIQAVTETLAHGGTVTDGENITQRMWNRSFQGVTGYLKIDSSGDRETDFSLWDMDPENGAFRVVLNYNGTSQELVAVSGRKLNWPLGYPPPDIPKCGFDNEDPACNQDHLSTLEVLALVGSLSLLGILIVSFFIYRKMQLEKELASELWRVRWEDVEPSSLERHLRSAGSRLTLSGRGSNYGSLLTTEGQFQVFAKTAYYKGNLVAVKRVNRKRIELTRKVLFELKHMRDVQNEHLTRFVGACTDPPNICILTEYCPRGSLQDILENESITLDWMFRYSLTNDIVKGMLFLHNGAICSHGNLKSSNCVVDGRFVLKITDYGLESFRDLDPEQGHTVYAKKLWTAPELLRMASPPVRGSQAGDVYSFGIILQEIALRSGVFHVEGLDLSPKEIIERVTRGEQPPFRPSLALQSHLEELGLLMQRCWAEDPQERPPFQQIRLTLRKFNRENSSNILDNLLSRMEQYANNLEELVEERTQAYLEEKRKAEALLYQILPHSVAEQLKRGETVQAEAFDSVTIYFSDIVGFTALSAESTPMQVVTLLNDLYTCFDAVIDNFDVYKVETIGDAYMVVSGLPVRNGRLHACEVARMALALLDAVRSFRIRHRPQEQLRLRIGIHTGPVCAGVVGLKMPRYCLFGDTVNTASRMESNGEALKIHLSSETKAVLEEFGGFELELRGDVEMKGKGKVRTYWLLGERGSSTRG
# T4: human NPR1 (Natriuretic Peptide Receptor 1), recombinant antigen (human, UniProt P16066 33-473)
# T4 construct: also called hNPR1; NPR1-hFc
# T4 sequence: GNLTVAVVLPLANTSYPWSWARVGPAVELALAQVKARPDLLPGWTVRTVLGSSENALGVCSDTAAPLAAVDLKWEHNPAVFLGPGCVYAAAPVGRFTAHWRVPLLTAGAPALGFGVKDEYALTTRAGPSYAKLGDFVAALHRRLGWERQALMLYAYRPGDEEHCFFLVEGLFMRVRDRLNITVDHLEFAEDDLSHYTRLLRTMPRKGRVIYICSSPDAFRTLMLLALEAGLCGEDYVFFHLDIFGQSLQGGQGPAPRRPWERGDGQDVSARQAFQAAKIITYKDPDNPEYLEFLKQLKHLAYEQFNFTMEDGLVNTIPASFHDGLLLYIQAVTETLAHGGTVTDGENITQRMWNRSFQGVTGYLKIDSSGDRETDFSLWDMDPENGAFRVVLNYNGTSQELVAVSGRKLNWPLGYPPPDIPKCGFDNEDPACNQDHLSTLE
# T5: constitutively active human NPR1 mutant (W74R), recombinant antigen (human, UniProt P16066 33-473)
# T5 construct: also called W74R hNPR1
# T5 sequence: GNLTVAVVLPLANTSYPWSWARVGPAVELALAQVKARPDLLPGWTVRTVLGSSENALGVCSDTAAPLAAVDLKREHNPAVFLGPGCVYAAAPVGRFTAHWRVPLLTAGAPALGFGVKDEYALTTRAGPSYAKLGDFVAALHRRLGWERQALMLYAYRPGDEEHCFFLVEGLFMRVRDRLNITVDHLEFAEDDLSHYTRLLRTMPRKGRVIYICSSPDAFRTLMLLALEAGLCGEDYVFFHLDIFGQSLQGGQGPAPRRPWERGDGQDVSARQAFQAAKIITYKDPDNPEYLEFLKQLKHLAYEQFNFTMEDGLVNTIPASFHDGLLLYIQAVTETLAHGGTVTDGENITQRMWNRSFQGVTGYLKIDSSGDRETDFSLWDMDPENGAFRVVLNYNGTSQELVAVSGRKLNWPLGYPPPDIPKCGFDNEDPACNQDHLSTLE
# T6: rat NPR1, recombinant antigen (rat, UniProt P18910 29-469)
# T6 construct: NCBI NP_036745.1 printed; also called rNPR1
# T6 sequence: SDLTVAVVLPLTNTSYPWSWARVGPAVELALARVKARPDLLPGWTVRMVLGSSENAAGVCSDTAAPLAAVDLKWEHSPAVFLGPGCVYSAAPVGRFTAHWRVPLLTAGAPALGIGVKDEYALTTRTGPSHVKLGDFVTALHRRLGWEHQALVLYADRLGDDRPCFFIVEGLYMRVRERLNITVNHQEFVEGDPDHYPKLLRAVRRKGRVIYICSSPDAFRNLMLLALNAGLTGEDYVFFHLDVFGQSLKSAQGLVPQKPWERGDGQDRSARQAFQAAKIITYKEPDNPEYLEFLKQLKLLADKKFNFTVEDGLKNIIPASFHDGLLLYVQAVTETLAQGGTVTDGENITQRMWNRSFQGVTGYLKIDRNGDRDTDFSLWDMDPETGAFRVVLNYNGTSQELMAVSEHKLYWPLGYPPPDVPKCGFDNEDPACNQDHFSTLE
# Experiments:
# [1] = biological target: T1, human NPR1 expressed on CHO-K1 cells in …; assay: flow cytometry, 1 uM IgG, +100 nM ANP
# [2] = biological target: T7, rat NPR1-ANP complex (rat); assay: ELISA, 1 uM IgG, +100 nM ANP
# T7 construct: Rat receptor antigen measured in the presence of ANP; also called rNPR1 + ANP; rNPR1-ANP-complex
# [3] = biological target: T2, human NPR1-ANP complex; assay: ELISA, 1 uM IgG, +100 nM ANP
# [4] = biological target: T2, human NPR1-ANP complex; assay: ELISA, IgG titrated on the antigen with 250 fold molar excess of ANP [cont.]
# [5] = biological target: T3, human NPR1 expressed on CHO-K1 cells; assay: cell-based or functional assay
# [6] = biological target: T4, human NPR1 (Natriuretic Peptide …); assay: ELISA, 1 uM IgG
# [7] = biological target: T5, constitutively active human NPR1 mutant …; assay: ELISA, 1 uM IgG
# [8] = biological target: T3, human NPR1 expressed on CHO-K1 cells; assay: flow cytometry, 1 uM IgG
# [9] = biological target: T4, human NPR1 (Natriuretic Peptide …); assay: FRET assay on hNPR1, competitor Cy5-labeled ANP [cont.]
# [10] = biological target: T4, human NPR1 (Natriuretic Peptide …); assay: ELISA, IgG titrated on the antigen without ANP [cont.]
# [11] = biological target: T5, constitutively active human NPR1 mutant …; assay: as above
# [12] = biological target: T2, human NPR1-ANP complex; assay: ELISA, IgG titrated on the antigen with 250 fold molar excess of ANP [cont.]; remark: listed apart in the source
# [13] = biological target: T6, rat NPR1, recombinant antigen; assay: ELISA, 1 uM IgG
binder,measurement,setting,value
"YY06 IgG (YY06_LALA) (antibody, V domains shown) VH: EVQLLESGGGLVQPGGSLRLSCAASGFTFSSYAISWVRQAPGKGLEWVSAISGSGGSTYYAESVKGRFTISRDNSKNTLYLQMNSLRAEDTAVYYCARPYLGDRRSYGFDHWGQGTLVTVSS VL: QSALTQPASVSGSPGQSITISCTGTSSDVGSYNLVSWYQQHPGKAPKLMIYEGSKRPSGVSNRFSGSKSGNTASLTISGLQAEDEADYYCSSYGFHIVVVVFGGGTKLTVLG",flow cytometry S/BG,[1],18 S/BG
same,ELISA IgG binding at 1 uM IgG (unit not given),[2],4
same,ELISA IgG binding at 1 uM IgG (unit not given),[3],102
same,EC50 (read off the curve),[4],~8 nM
same,"cGMP conc [nM] at 1 uM IgG, +0.075 nM ANP",[5],15 nM
same,"cGMP conc [nM] at 1 uM IgG, without ANP",[5],12 nM
same,ELISA IgG binding at 1 uM IgG (unit not given),[6],91
same,ELISA IgG binding at 1 uM IgG (unit not given),[7],83
same,flow cytometry S/BG,[8],26 S/BG
same,IC50 (read off the curve),[9],~5 nM
same,EC50 (read off the curve),[10],~8 nM
same,EC50 (read off the curve),[11],~5 nM
"XX08 (antibody, human IgG1, kappa, L234A L235A, V domains shown, the panel axis reads IgG conc; [nM]; the list MOLECULES holds only the FabCys format; also called XX08 IgG; XX08_LALA) VH: EVQLLESGGGLVQPGGSLRLSCAASGFTFNTHYIHWVRQAPGKGLEWVSSIGGQGGMTLYADSVKGRFTISRDNSKNTLYLQMNSLRAEDTAVYYCARERGYVYYHMFDPWGQGTLVTVSS VL: DIVLTQSPATLSLSPGERATLSCRASQSITRNYLAWYQQKPGQAPRLLIYGASSRATGIPARFSGSGSGTDFTLTISSLEPEDFAVYYCQQHSMYPRTFGQGTKVEIKR",EC50 (read off the curve),[12],~0.5 nM
"YY05 IgG (YY05_LALA) (antibody, V domains shown) VH: EVQLVQSGAEVKKPGESLKISCKGSGYSFTSYWISWVRQMPGKGLEWMGIIYPGTSYTRYSPSFQGQVTISADKSISTAYLQWSSLKASDTAMYYCARGAVAGQLGFDHWGQGTLVTVSS VL: QSVLTQPPSVSGAPGQRVTISCTGSSSNIGAGYDVHWYQQLPGTAPKLLIYGNSNRPSGVPDRFSGSKSGTSASLAITGLQAEDEADYYCQSYYTSSHGPVFGGGTKLTVLG",flow cytometry S/BG,[1],5 S/BG
same,ELISA IgG binding at 1 uM IgG (unit not given),[2],16
same,ELISA IgG binding at 1 uM IgG (unit not given),[3],32
same,"cGMP conc [nM] at 1 uM IgG, +0.075 nM ANP",[5],15 nM
same,"cGMP conc [nM] at 1 uM IgG, without ANP",[5],13 nM
same,ELISA IgG binding at 1 uM IgG (unit not given),[6],81
same,ELISA IgG binding at 1 uM IgG (unit not given),[7],69
same,ELISA IgG binding at 1 uM IgG (unit not given),[13],11
same,flow cytometry S/BG,[8],15 S/BG
same,EC50 (read off the curve),[11],~1 nM
